Results from publication PMC1769423, “Different Quaternary Structures of Human RECQ1 Are Associated with Its Dual Enzymatic Activity” (PLoS Biology, 2007).
Where a chain is given by its changes, count along the chain named. Names may count otherwise.

Assays:
[1] = biological target: the molecule itself; assay: negative-stain transmission electron microscopy; as a2 but with 2-5 mM ATP or ATPγS, with or without oligo(dT)30
[2] = biological target: the molecule itself; assay: SEC; Superdex200 HR 10/30, 20 mM Tris pH 7.5, 150 mM KCl, 1 mM DTT; about 40 ug RECQ1 loaded at 1 uM; alone, with oligo(dT)40 or oligo(dT)30 and/or 1 mM ATP or ATPγS in the elution buffer; also 100-500 mM salt and 0.1-35 uM protein

B1: RECQ1(K119R) (human RECQ1, ATPase-deficient Walker A mutant) (enzyme, UniProt P46063 1-649, looked up)
chain: MASVSALTEELDSITSELHAVEIQIQELTERQQELIQKKKVLTKKIKQCLEDSDAGASNEYDSSPAAWNKEDFPWSGKVKDILQNVFKLEKFRPLQLETINVTMAGKEVFLVMPTGGGRSLCYQLPALCSDGFTLVICPLISLMEDQLMVLKQLGISATMLNASSSKEHVKWVHAEMVNKNSELKLIYVTPEKIAKSKMFMSRLEKAYEARRFTRIAVDEVHCCSQWGHDFRPDYKALGILKRQFPNASLIGLTATATNHVLTDAQKILCIEKCFTFTASFNRPNLYYEVRQKPSNTEDFIEDIVKLINGRYKGQSGIIYCFSQKDSEQVTVSLQNLGIHAGAYHANLEPEDKTTVHRKWSANEIQVVVATVAFGMGIDKPDVRFVIHHSMSKSMENYYQESGRAGRDDMKADCILYYGFGDIFRISSMVVMENVGQQKLYEMVSYCQNISKCRRVLMAQHFDEVWNSEACNKMCDNCCKDSAFERKNITEYCRDLIKILKQAEELNEKLTPLKLIDSWMGKGAAKLRVAGVVAPTLPREDLEKIIAHFLIQQYLKEDYSFTAYATISYLKIGPKANLLNNEAHAITMQVTKSTQNSFRAESSQTCHSEQGDKKMEEKNSGNFQKKAANMLQQSGSKNTGAKKRKIDDA
notes: human RECQ1 helicase (alias RECQL), the 649-amino acid variant, with K119R in ATPase motif I (Walker A box); also called RECQ1 K119R mutant; His6-K119R RECQ1 mutant; source: baculovirus/Sf9 cells, purified; not shown: His6, N-terminal, kept
- binding result [1]: binds

B2: untagged RECQ1 (utRECQ1; human RECQ1 helicase after removal of the N-terminal His6-tag) (enzyme, UniProt P46063 1-649, looked up)
chain: B1 chain with R119K
notes: human RECQ1 helicase (alias RECQL), the 649-amino acid variant; also called untagged wild-type RECQ1; source: baculovirus/Sf9 cells, purified; not shown: His6, N-terminal, cleaved
- binding result [2]: binds
